Test results: patent publication US20230265151A1, “GIP/GLP1 CO-AGONIST COMPOUNDS” (priority 2020, published 2023)
*1 amine or outer side, *2 acyl side, *3 side chain or, on linkers, in order; H or OH if unused. Where no end group is shown, it is not given here. Side-chain parts run from the residue outwards. [ ]: non-standard residue; d: D form. The star is where a group is joined. αMePhe(2-F) = C[C@](N)(Cc1ccccc1F)C(=O)O; γGlu = O=C(O)[C@H](CCC(=O)[*:2])N[*:1]; C14 diacid = O=C(O)CCCCCCCCCCCCC(=O)*; αMeY = C[C@](N)(Cc1ccc(O)cc1)C(=O)O; αMeL = CC(C)C[C@](C)(N)C(=O)O; Nle = CCCC[C@H](N)C(=O)O; Orn = NCCC[C@H](N)C(=O)O; AEEA = NCCOCCOCC(=O)O; Aib = CC(C)(N)C(=O)O

T1: human GIP receptor (human, UniProt P48546 22-466)
T1 construct: whole, on cells; also called hGIPR; human glucose-dependent insulinotropic polypeptide receptor
T1 sequence (looked up): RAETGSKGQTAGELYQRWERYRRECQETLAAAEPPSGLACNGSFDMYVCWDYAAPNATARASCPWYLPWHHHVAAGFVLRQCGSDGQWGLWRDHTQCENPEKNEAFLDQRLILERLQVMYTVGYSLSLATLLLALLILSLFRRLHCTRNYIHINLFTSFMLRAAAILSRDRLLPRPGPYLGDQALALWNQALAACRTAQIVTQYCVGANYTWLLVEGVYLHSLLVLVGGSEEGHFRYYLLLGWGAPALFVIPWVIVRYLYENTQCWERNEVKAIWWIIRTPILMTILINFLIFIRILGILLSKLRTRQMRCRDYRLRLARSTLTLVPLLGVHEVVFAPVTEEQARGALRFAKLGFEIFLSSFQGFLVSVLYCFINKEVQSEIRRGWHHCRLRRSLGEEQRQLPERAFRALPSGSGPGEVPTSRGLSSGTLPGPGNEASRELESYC


Key:
[1] = molecular target: T1, human GIP receptor; assay: SPA competition vs [125I]-GIP, hGIPR membranes
[2] = molecular target: T2, human glucagon receptor (human, UniProt P47871 26-477); assay: SPA competition vs [125I]-Gcg, hGcgR membranes
T2 construct: whole, on cells; also called hGCGR; hGcgR
T2 sequence (P47871 26-477): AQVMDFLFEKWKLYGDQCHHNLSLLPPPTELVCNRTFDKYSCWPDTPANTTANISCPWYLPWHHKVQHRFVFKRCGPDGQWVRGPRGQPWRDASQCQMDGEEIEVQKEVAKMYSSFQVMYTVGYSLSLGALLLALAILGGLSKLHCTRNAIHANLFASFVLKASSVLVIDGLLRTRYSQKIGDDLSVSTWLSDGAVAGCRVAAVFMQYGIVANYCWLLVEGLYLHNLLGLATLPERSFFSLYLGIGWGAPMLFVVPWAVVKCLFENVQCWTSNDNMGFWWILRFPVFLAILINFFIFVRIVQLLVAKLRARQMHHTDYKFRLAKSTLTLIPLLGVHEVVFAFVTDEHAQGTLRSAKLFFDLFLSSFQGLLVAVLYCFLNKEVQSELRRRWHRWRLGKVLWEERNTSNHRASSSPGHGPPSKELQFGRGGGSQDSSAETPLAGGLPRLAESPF

[3] = molecular target: T3, human GLP-1 receptor (human, UniProt P43220 24-463); assay: SPA competition vs [125I]-GLP-1, hGLP-1R membranes
T3 construct: whole, on cells; also called hGLP-1R; human glucagon-like peptide-1 receptor
Outline: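 Competition binding in 25 mM HEPES pH 7.4, 2.5 mM CaCl₂, 1 mM MgCl₂, 0.1% bacitracin, 0.003% TWEEN-20, EDTA-free protease inhibitors. IC₅₀ from four-parameter nonlinear fit; Kᵢ given as geometric mean ± SEM, n = independent replicates on different days.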

| Binder | Ki [1] [nM] | Ki [2] [nM] | Ki [3] [nM] |
| --- | --- | --- | --- |
| YXEGTXTSDYXIXLDXQAQXXFIKXLIKGGPSSGAPPPS (Aib2, αMeF(2F)6, Aib11, αMeL13, Orn16, Aib20, Orn21, K24(Z1), αMeY25, K28(Z1), C-term NH2; Z1=AEEA2-(γ-Glu)2-CO-(CH2)12-CO2H) | 0.0368 | 88.5 | 0.307 |
| YXEGTXTSDXSIXLDXKAQXEFIXXLIEGGKSSGAPPPS (Aib2, αMeF(2F)6, 4Pal10, αMeL13, Orn16, K17(Z1), Aib20, D-Glu24, αMeY25, K31(Z1), C-term NH2; Z1=AEEA-(γ-Glu)-CO-(CH2)12-CO2H) | 0.0508 | 660 | 1.06 |
| YXEGTXTSDXXIXLDXQAQXXFIKXLIKGGPSSGAPPPS (Aib2, αMeF(2F)6, 4Pal10, Aib11, αMeL13, Orn16, Aib20, Orn21, K24(Z1), αMeY25, K28(Z1), C-term NH2; Z1=(γ-Glu)-AEEA2-(γ-Glu)-CO-(CH2)12-CO2H) | 0.0277 | 273 | 0.254 |
| YXEGTXTSDXXIXLDXQAQXXFIKXLIKGGPSSGAPPPS (Aib2, αMeF(2F)6, 4Pal10, Aib11, αMeL13, Orn16, Aib20, Orn21, K24(Z1), αMeY25, K28(Z1), C-term NH2; Z1=(γ-Glu)-AEEA2-(γ-Glu)-(10-(4-carboxyphenoxy)decanoyl)) | 0.0236 | 151 | 0.263 |
| YXEGTXTSDXXIXLDXQAQXXFIKXLIKGGPSSGAPPPS (Aib2, αMeF(2F)6, 4Pal10, Aib11, αMeL13, Orn16, Aib20, Orn21, K24(Z1), αMeY25, K28(Z1), C-term NH2; Z1=AEEA-(γ-Glu)-AEEA-(γ-Glu)-CO-(CH2)12-CO2H) | 0.0296 | 305 | 0.268 |
| YXEGTXTSDXXIXLDXQAQXXFIKXLIKGGPSSGAPPPS (Aib2, αMeF(2F)6, 4Pal10, Aib11, αMeL13, Orn16, Aib20, Orn21, K24(Z1), αMeY25, K28(Z1), C-term NH2; Z1=AEEA-(γ-Glu)-AEEA-(γ-Glu)-(10-(4-carboxyphenoxy)decanoyl)) | 0.0548 | 121 | 0.3 |
| YXEGTXTSDXXIXLDXQAQXXFIKXLIKGGPSSGAPPPS (Aib2, αMeF(2F)6, 4Pal10, Aib11, αMeL13, Orn16, Aib20, Orn21, K24(Z1), αMeY25, K28(Z1), C-term NH2; Z1=AEEA-(γ-Glu)3-CO-(CH2)12-CO2H) | 0.046 | 115 | 0.299 |
| YXEGTXTSDXXIXLDXQAQXXFIKXLIKGGPSSGAPPPS (Aib2, αMeF(2F)6, 4Pal10, Aib11, αMeL13, Orn16, Aib20, Orn21, K24(Z1), αMeY25, K28(Z1), C-term NH2; Z1=AEEA-(γ-Glu)3-(10-(4-carboxyphenoxy)decanoyl)) | 0.0714 | 73.3 | 0.217 |
| Y[Aib]EGT[αMePhe(2-F)]TSD[Nle]SI[αMeL]LD[Orn]QAQ[Aib][Orn]FIK([AEEA-AEEA-γGlu-C14 diacid])[αMeY]LIK([AEEA-AEEA-γGlu-C14 diacid])GGPSSGAPPPS-NH2 | 0.0288 | 37.8 | 0.27 |
